Substrate: NCCCC[C@H](N)C(=O)O
Assay: Kinetic characterization of LysRS: aminoacylation of M. maripaludis total tRNA with lysine
Assay type: biochemical, Methanococcus maripaludis
Conditions: other: purified native LysRS 5 nM, 37° C., pH 7.2
Text: To investigate the formation of Lys-tRNA in cell-free extracts prepared from M. maripaludis, (^14C) lysine and homologous total TRNA were used as substrates (6). […] This was confirmed by the observation that (^14C)Lys-tRNA synthesis was inhibited by only one of the 20 canonical amino acids, lysine (FIG. 1). This is consistent with the presence of LysRS, since Lys-tRNA synthesis via a mischarged tRNA would result in a non-labeled amino acid other than lysine being able to inhibit lysylation of tRNA. On the basis of these observations LysRS from M. maripaludis was purified. By standard chromatographic procedures (8), a single 62-kD protein was isolated, which was purified to homogeneity as judged by both silver staining after denaturing polyacrylamide gel electrophoresis (SDS-PAGE) and the appearance of a single symmetrical peak during size exclusion chromatography. […] The enzyme could acylate unfractionated tRNA with lysine to the same degree as the M. maripaludis crude extract (FIG. 1), confirming that the purified protein is LysRS. […] These modified nucleotides have previously been detected at position 34 in all known tRNA^Glu and tRNA^Lys isoacceptors (13).
6. […]
9. […] Sampling and quantification were as described (K. -W. Hong et al., EMBO J. 15, 1983 (1996)).

B1: M. maripaludis LysRS (Methanococcus maripaludis) (protein)
chain: MHWADATSEKIMKKRNAEEYVVSSGITPSGHIHIGNARETLTADAVYKGMLKKGAEAKLIFIADDYDPLRKLYPFLPKEFEKYIGMPLSEIPCPQGCCKSYADHFLMPFLNSLEDLGVEITTHRANECYKAGMYNEAIITALENRLKIKELLDSYRKEPLADNWYPLNVVCEKCGKMHETKVTSYNSEDKTITYVCKCGFENTVQPFNGIGKLPWRVDWPARWNIFGVTAEPMGKDHAASGGSYDTGIKIARQIFNYQAPEKMVYEWIQLKIGDKAMPMSSSSGVVFAVKDWTEICHPEVLRFLILKGKPTKHIDFDLKAISNLVDDYDELERKYFELIEKQKTEELNDNENEKISLYELVTPKIPERLPLQVAYRFCSIIAQIALDKETQKIDMERVFDILGRNGYNPAEFSEYDKSRLEKRLYMSKKWASDYGENLEINDFEQAKEQYETLSEEQKAWLKAFSKEVENIEIDANTIHELMYETATKLNLAPKEAFVASYKILLGKNYGPKLGSFLASLKKEFVIGRFNLTE
Work on B1 yielded a Km of 2.2 µM and a kcat of 1.6 s⁻¹.

Source: patent US6492131B1, “Class I-type lysyl-TRNA synthetase” (Yale University, priority 1997, dated 2002)
